Experimental data published in paper PMC12631311, “Molecular Insights into IAHSP: Influence of the R1611W Mutation on the VPS9 Domain of Alsin” (ACS Omega, 2025).
Where “and” joins values, the source holds several entries; their conditions need not be identical. Identical values can stand only once.

Target: the molecule itself
Assay: SEC; Superdex 200 Increase 10/300 GL, 50 mM potassium phosphate pH 8.0, 150 mM NaCl, 0.5 mL/min, room temperature; 310 ug VPS9 WT or 270 ug VPS9 R1611W injected; apparent molecular weights from column calibration

Protein | stoichiometry N
human alsin VPS9 WT (C1551S/C1558S/C1647S) (domain or fragment, UniProt Q96Q42 1513-1657, looked up, alsin, human, VPS9 domain, residues 1513-1657 of UniProt Q96Q42, with three Cys to Ser changes in the construct called WT; Cloned in pET28b between NdeI and EcoRI; No cleavage of the tag is described; The N-terminal position is read from the forward primer (thrombin site before the ATG); The printed monomer mass of 16.6 kDa fits the domain without the tag; also called wild-type VPS9 domain) KQPDIALLGFLGVQRKFWPATLSILGESKKVLPTTKDASFASAVESLQQISTTFTPSDKLKVIQQTFEEISQSVLASLHEDFLWSMDDLFPVFLYVVLRARIRNLGSEVHLIEDLMDPYLQHGEQGIMFTTLKASYYQIQREKLN | 4
human alsin VPS9 R1611W mutant (domain or fragment, UniProt Q96Q42 1513-1657, looked up, alsin, human, VPS9 domain, residues 1513-1657 of UniProt Q96Q42; The pathological R1611W mutation was inserted by site-directed mutagenesis into the VPS9 WT (C1551S/C1558S/C1647S) construct; Same construct and tag as m1 with R1611W added; also called VPS R1611W) KQPDIALLGFLGVQRKFWPATLSILGESKKVLPTTKDASFASAVESLQQISTTFTPSDKLKVIQQTFEEISQSVLASLHEDFLWSMDDLFPVFLYVVLWARIRNLGSEVHLIEDLMDPYLQHGEQGIMFTTLKASYYQIQREKLN | 4 and 6
